From paper PMC2941470 come the findings set out here.

The test addresses endogenous DDX3X from HuH-7 cells (human (endogenous in HuH-7)) (UniProt O00571).
Chain of UniProt O00571 (O00571 whole entry): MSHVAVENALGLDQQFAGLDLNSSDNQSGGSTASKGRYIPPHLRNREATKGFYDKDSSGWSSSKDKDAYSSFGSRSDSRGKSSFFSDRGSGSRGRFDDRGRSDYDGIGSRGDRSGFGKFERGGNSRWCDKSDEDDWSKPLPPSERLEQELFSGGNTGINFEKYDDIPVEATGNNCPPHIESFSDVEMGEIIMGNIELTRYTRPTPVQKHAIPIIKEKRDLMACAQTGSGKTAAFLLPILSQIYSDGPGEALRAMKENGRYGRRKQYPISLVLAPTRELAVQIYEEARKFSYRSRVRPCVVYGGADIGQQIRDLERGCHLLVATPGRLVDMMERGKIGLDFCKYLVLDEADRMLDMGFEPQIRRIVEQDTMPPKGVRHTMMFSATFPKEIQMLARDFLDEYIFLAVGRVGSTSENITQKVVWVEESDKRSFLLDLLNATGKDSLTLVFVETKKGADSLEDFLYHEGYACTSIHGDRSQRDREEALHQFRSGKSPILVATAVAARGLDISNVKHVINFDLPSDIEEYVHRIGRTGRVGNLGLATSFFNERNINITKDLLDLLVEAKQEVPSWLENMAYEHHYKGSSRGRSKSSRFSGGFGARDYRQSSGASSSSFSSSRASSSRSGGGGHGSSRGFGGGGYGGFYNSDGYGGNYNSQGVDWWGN

The substance “GFP fusion to HCV core protein residues 16–36 (peptide)” had a level of HCV replicon NNeo/C-5B RNA in HuH-7 cells 48 h after transient transfection (Northern blot) of 50%.
